How the values were obtained:
[1] = target: T1, His-tagged FcγRIIIa (F variant) extracellular domain (Heterogeneously glycosylated.); test: Biacore T100, His-tagged FcγRIIIa captured on anti-polyhistidine antibody, antibody injected 2-512 nM, 25°C, 1:1 model
T1 construct: also called FcγRIIIa (Phe); FcγRIIIa (Phe variant)
Experimental: (§1) Qiagen anti-polyhistidine antibody (Cat No. 34670) was immobilised on CM5 biosensor chip using standard NHS/EDC activation, the antibody was diluted to 50 ug/ml in acetate pH4.0 buffer and passed over the activated surface for 20 minutes at 5 ul/minute, the surface was then blocked with ethanolamine. Prior to use the chip was conditioned by performing several regeneration steps using 100 mM phosphoric acid.
(§2) For analysis of the interaction of the FcγRIIIa with various antibody constructs, the poly-histidine tagged receptors were captured to around 20 RU's. […] Regeneration was carried out using 100 mM phosphoric acid following each antibody/buffer injection. The run was carried out using HBS-EP buffer and carried out at 25° C. on a T100 Biacore machine. The data was analysed using the analysis software inherent to the machine using the 1:1 and Bivalent models.

[2] = target: T2, His-tagged FcγRIIIa (V variant) extracellular domain (Heterogeneously glycosylated.); test: as above
T2 construct: also called FcγRIIIa (Val); FcγRIIIa (Val variant)
Experimental: as §1, §2

[3] = target: T1, His-tagged FcγRIIIa (F variant) …; test: Biacore T100, His-tagged FcγRIIIa captured on anti-polyhistidine antibody, antibody injected 2-512 nM, 25°C, Bivalent model
Experimental: as §1, §2

[4] = target: T2, His-tagged FcγRIIIa (V variant) …; test: as above
Experimental: as §1, §2

[5] = target: T3, Cynomolgus macaque monkey IGF-1R-Fc fusion protein (cynomolgus macaque monkey (Macaca …)); test: binding ELISA: plate coated with recombinant cynomolgus macaque IGF-1R-Fc, antibody titrated, anti-human kappa light chain-HRP detection, OD 490nm
T3 construct: The entry begins with the native signal peptide; also called recombinant Cynomolgus macaque IGF-1R; recombinant cynomolgus macaque IGF-1R
Experimental: (§3) 96 well ELISA plates were coated overnight with recombinant Cynomolgus macaque IGF-1R (see Example 4) at 1-2 μg/ml and blocked with 4% BSA/PBS. Purified anti-hIGF-1R antibodies were added and incubated for 1 hour at room temperature. The plates were washed in TBST and HRP conjugated anti mouse Ig (DAKO #P0260) was added to each well at 0.6-1.0 μg/ml. Plates were incubated for 1 hour at room temperature, washed with TBST and developed with OPD substrate (Sigma P9187) or TMB substrate (Sigma T8665). […] For antibodies containing a human IgG1/Cκ constant region, the HRP conjugated anti mouse Ig detection antibody was substituted with a goat anti-human Kappa Light Chains peroxidase conjugate (Sigma, A7164)

[6] = target: T3, Cynomolgus macaque monkey IGF-1R-Fc …; test: binding ELISA: plate coated with recombinant cynomolgus macaque IGF-1R-Fc, antibody titrated, anti-mouse Ig-HRP detection, OD 450nm
Experimental: as §3

T1 sequence (chain, as listed by the source mutant limits assumed): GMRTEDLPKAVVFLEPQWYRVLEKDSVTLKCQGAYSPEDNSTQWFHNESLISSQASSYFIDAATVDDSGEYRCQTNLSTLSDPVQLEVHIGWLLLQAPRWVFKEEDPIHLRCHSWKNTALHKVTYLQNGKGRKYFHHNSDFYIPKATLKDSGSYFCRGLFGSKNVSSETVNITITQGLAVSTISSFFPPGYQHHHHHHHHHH
T3 sequence (chain, as listed by the source limits assumed): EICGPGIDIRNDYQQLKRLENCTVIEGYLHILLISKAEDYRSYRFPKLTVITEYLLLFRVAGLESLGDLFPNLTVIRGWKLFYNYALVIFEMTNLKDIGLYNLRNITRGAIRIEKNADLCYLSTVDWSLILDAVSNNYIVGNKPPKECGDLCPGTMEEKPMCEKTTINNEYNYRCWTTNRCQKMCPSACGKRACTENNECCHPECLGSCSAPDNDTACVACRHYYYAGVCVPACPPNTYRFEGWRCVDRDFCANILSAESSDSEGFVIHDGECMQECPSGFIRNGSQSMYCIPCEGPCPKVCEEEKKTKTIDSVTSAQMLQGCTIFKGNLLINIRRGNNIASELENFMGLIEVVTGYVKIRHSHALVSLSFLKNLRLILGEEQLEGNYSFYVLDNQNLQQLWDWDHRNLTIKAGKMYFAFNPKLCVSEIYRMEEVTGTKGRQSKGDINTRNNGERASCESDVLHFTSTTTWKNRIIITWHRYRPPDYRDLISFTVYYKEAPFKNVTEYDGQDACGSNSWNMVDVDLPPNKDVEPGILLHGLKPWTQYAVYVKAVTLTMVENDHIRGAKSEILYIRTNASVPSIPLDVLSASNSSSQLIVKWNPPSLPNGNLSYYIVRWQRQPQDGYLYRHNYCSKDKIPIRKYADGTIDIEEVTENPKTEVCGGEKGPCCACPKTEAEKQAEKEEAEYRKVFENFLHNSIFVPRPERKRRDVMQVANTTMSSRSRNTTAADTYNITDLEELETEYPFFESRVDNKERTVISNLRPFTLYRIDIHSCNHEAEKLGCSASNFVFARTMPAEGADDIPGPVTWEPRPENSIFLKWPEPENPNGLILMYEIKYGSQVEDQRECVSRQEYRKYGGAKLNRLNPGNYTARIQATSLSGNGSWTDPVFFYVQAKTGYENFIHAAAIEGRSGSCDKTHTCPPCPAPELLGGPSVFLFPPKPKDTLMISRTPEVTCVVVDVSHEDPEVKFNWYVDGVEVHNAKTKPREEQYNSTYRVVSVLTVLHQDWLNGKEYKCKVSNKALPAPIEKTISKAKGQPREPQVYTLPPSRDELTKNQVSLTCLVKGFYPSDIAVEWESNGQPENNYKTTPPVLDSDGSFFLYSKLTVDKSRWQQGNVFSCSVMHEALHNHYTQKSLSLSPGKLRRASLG
T2 sequence (chain, as listed by the source mutant limits assumed): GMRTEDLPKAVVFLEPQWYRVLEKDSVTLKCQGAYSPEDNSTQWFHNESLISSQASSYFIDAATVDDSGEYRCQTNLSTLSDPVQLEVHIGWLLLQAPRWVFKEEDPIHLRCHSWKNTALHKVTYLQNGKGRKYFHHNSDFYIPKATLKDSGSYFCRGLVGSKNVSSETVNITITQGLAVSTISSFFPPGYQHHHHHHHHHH

Binder	Kd [1]	Kd [2]	Kd [3]	Kd [4]	binding result [5]	further results
H0L0 humanised antibody (wild type human IgG1) (antibody) heavy: not shown light: DIVMTQSPLSLPVTPGEPASISCRSSQSIVQSNGDTYLEWYLQKPGQSPQLLIYRVSNRFSGVPDRFSGSGSGTDFTLKISRVEAEDVGVYYCFQGSHVPYTFGQGTKLEIKRTVAAPSVFIFPPSDEQLKSGTASVVCLLNNFYPREAKVQWKVDNALQSGNSQESVTEQDSKDSTYSLSSTLTLSKADYEKHKVYACEVTHQGLSSPVTKSFNRGEC	–	–	–	–	binds	–
IGF1R-F (anti-IGF-1R H0L0 IgG1, wild type constant region, FUT8 deleted CHO DG44) (antibody, N-glycan fucose negative (all oligosaccharide species obtained from the sample are fucose negative), Same chains as IGF1R-E; differs by the host cell line; Campath leader left out) heavy: not shown light: DIVMTQSPLSLPVTPGEPASISCRSSQSIVQSNGDTYLEWYLQKPGQSPQLLIYRVSNRFSGVPDRFSGSGSGTDFTLKISRVEAEDVGVYYCFQGSHVPYTFGQGTKLEIKRTVAAPSVFIFPPSDEQLKSGTASVVCLLNNFYPREAKVQWKVDNALQSGNSQESVTEQDSKDSTYSLSSTLTLSKADYEKHKVYACEVTHQGLSSPVTKSFNRGEC	59.6 nM	12.1 nM	131 nM	146 nM	–	–
IGF1R-H (anti-IGF-1R H0L0 IgG1 with S239D/I332E, FUT8 deleted CHO DG44) (antibody, N-glycan from FUT8 deleted CHO DG44 host (glycoengineered), Same chains as IGF1R-G; differs by the host cell line; Campath leader left out) heavy: not shown light: DIVMTQSPLSLPVTPGEPASISCRSSQSIVQSNGDTYLEWYLQKPGQSPQLLIYRVSNRFSGVPDRFSGSGSGTDFTLKISRVEAEDVGVYYCFQGSHVPYTFGQGTKLEIKRTVAAPSVFIFPPSDEQLKSGTASVVCLLNNFYPREAKVQWKVDNALQSGNSQESVTEQDSKDSTYSLSSTLTLSKADYEKHKVYACEVTHQGLSSPVTKSFNRGEC	1.11 nM	0.832 nM	51.7 nM	2.7 nM	–	–
H0L0 IgG1m(AA) (antibody) heavy: not shown light: DIVMTQSPLSLPVTPGEPASISCRSSQSIVQSNGDTYLEWYLQKPGQSPQLLIYRVSNRFSGVPDRFSGSGSGTDFTLKISRVEAEDVGVYYCFQGSHVPYTFGQGTKLEIKRTVAAPSVFIFPPSDEQLKSGTASVVCLLNNFYPREAKVQWKVDNALQSGNSQESVTEQDSKDSTYSLSSTLTLSKADYEKHKVYACEVTHQGLSSPVTKSFNRGEC	–	–	–	–	binds	–
6E11 murine monoclonal antibody (antibody, V domains shown, Murine hybridoma antibody; Constant regions are murine IgG1/K or IgG2b/K; also called 6E11 parental; 6E11 mouse parental antibody) VH: EVQLQQSGPELVKPGASVRISCKASGYAFTDYYMNWVKQSHGKSLEWVANINPNNGGTNYNQKFKDKATLTVDKSSNTAYMELRSLTSEDTAVYYCARWILYYGRSKWYFDVWGTGTTVTVSS VL: DVLMTQTPLSLPVSLGDHASISCRSSQSIVQSNGDTYLEWYLQKPGQSPKLLIYRISNRFSGVPDRFSGSGSGTDFTLKISRVEAEDLGVYYCFQGSHVPYTFGGGTKLEIKR	–	–	–	–	–	EC50 (read off the curve) [6]: ~0.04 µg/mL
5G4 murine monoclonal antibody (antibody, V domains shown, Murine hybridoma antibody; murine constant regions not specified) VH: EVQLQQSGPELVKPGASVKISCKASGYAFTDYYMNWVKQTHGRSLEWMANINPNTGGTNYNQKFRGKATLTVDKSSTTAYMELRSLTSEDSAVYYCARWILYYGSSRWYFDVWGTGTTVTVSS VL: DVLMTQTPLSLPVSLGDQASISCRSSQTIVHSNGNTYLEWYLQKPGQSPKLLIYKVSNRFSGVPDRFSGSGSGTDFTLKISRVEAEDLGIYYCFQGSHVPYTFGGGTKLEIKR	–	–	–	–	–	EC50 (read off the curve) [6]: ~0.1 µg/mL
15D9 murine monoclonal antibody (antibody, V domains shown, Murine hybridoma antibody; murine constant regions not specified) VH: EVQLQQSGPELVKPGASVKISCKASGYAFTDYYMNWVKQSHGKSLEWMANINPNTGGTNYNQKFTGKATLTVDKSSTTAYMELRSLTSEDSAVYYCTRWILYYGSSKWYFDVWGTGTTVTVSS VL: DVLMTQTPLSLPVSLGDQASISCRSSQTIVHSNGNTYLEWYLQKPGQSPKLLIYRVSYRFSGVPDRFSGSGSGTDFTLKISRLEAEDLGIYYCFQGSHVPYTFGGGTKLEIKR	–	–	–	–	–	binding result [6]: binds

The next lines start with results.

Kd [1]	Kd [2]	Kd [3]	Kd [4]	binding result [5]	Binder	further results
20.7 nM	5.9 nM	75.6 nM	74.1 nM	–	CD20-B (anti-CD20 IgG1, wild type constant region, FUT8 deleted CHO DG44) (antibody, The Fc N-glycan is expected to lack fucose (host: FUT8 deleted CHO DG44). The letters cannot carry this.) heavy: not shown light: QIVLSQSPAILSASPGEKVTMTCRASSSVSYIHWFQQKPGSSPKPWIYATSNLASGVPVRFSGSGSGTSYSLTISRVEAEDAATYYCQQWTSNPPTFGGGTKLEIKRTVAAPSVFIFPPSDEQLKSGTASVVCLLNNFYPREAKVQWKVDNALQSGNSQESVTEQDSKDSTYSLSSTLTLSKADYEKHKVYACEVTHQGLSSPVTKSFNRGEC	–
–	39.5 nM	78.2 nM	274 nM	–	CD20-A (anti-CD20 IgG1, wild type constant region, CHO-E1a) (antibody) heavy: not shown light: QIVLSQSPAILSASPGEKVTMTCRASSSVSYIHWFQQKPGSSPKPWIYATSNLASGVPVRFSGSGSGTSYSLTISRVEAEDAATYYCQQWTSNPPTFGGGTKLEIKRTVAAPSVFIFPPSDEQLKSGTASVVCLLNNFYPREAKVQWKVDNALQSGNSQESVTEQDSKDSTYSLSSTLTLSKADYEKHKVYACEVTHQGLSSPVTKSFNRGEC	–
–	–	–	–	binds	H1L0 IgG1m(AA) (antibody, also called H10L0 IgG1m(AA) (as misprinted in several captions)) heavy: not shown light: DIVMTQSPLSLPVTPGEPASISCRSSQSIVQSNGDTYLEWYLQKPGQSPQLLIYRVSNRFSGVPDRFSGSGSGTDFTLKISRVEAEDVGVYYCFQGSHVPYTFGQGTKLEIKRTVAAPSVFIFPPSDEQLKSGTASVVCLLNNFYPREAKVQWKVDNALQSGNSQESVTEQDSKDSTYSLSSTLTLSKADYEKHKVYACEVTHQGLSSPVTKSFNRGEC	–
14.9 nM	7.27 nM	88.9 nM	68.8 nM	–	IGF1R-G (anti-IGF-1R H0L0 IgG1 with S239D/I332E, CHO-E1a) (antibody, Campath leader left out) heavy: not shown light: DIVMTQSPLSLPVTPGEPASISCRSSQSIVQSNGDTYLEWYLQKPGQSPQLLIYRVSNRFSGVPDRFSGSGSGTDFTLKISRVEAEDVGVYYCFQGSHVPYTFGQGTKLEIKRTVAAPSVFIFPPSDEQLKSGTASVVCLLNNFYPREAKVQWKVDNALQSGNSQESVTEQDSKDSTYSLSSTLTLSKADYEKHKVYACEVTHQGLSSPVTKSFNRGEC	–
–	–	–	–	binds	H1L0 humanised antibody (wild type human IgG1) (antibody) heavy: not shown light: DIVMTQSPLSLPVTPGEPASISCRSSQSIVQSNGDTYLEWYLQKPGQSPQLLIYRVSNRFSGVPDRFSGSGSGTDFTLKISRVEAEDVGVYYCFQGSHVPYTFGQGTKLEIKRTVAAPSVFIFPPSDEQLKSGTASVVCLLNNFYPREAKVQWKVDNALQSGNSQESVTEQDSKDSTYSLSSTLTLSKADYEKHKVYACEVTHQGLSSPVTKSFNRGEC	–
